Consider five molecules from doi:10.1101/2021.10.13.464316 (bioRxiv, 2021).

Assay in all cases: pull-down
For one assay, the target named is 6 × His-tagged FER–CD (Arabidopsis thaliana, UniProt Q9SCZ4 469-895).
The target of assay [1] is T1, FER^K565R–CD–His (kinase dead form) (Arabidopsis thaliana, UniProt Q9SCZ4 469-895, K565R).
In assay [2] the target is FER–CD (+ ATP) treated with CIP (Arabidopsis thaliana, UniProt Q9SCZ4 469-895).
Assay [3] concerns the target T1, FER^K565R–CD–His (kinase dead form). This is another data set of the same source.

Substitutions are numbered along the chain they refer to. Read-outs that look alike come from different tables or passages of the source.

Sequence of 6 × His-tagged FER–CD (Q9SCZ4 469-895): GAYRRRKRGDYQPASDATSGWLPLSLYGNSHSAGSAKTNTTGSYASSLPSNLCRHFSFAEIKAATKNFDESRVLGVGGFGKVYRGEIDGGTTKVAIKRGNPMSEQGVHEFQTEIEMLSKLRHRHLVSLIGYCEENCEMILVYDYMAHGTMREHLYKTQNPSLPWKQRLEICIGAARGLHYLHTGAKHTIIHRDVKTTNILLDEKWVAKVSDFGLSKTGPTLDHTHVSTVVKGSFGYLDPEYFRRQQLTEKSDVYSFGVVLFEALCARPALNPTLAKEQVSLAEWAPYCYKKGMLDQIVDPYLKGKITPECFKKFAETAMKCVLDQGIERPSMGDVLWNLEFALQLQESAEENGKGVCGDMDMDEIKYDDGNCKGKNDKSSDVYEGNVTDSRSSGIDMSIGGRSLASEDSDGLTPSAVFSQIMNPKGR
T1 sequence (Q9SCZ4 469-895 K565R): as the sequence (Q9SCZ4 469-895) above, with K97R counted along it
Sequence of FER–CD (+ ATP) treated with CIP (Q9SCZ4 469-895): as the sequence (Q9SCZ4 469-895) above

B1: GST–CAR5 (natural protein)
chain: MIVSFLYFSSLFPTSLRKINLVAGEKHKDRRMKPSLMDSLLGLLRIRIKRGVNLAVRDLNSSDPYVVVKMAKQKLKTRVIYKNVNPEWNEDLTLSVSDPNLTVLLTVYDYDTFTKDDKMGDAEFGIKPFVNALKMHLHDLPSGTIVTTVQPSRDNCLAEESRVIWSDGKLVQDIVLRLRHVECGEVEAQLQWIDLPGKGL
For B1, the binding result with 6 × His-tagged FER–CD is “binds”.

B2: GST–CAR10 (natural protein)
chain: MDQKPLGLLTIHVKRGINLAIRDHRSSDPYIVLNVADQTLKTRVVKKNCNPVWNEEMTVAIKDPNVPIRLTVFDWDKFTGDDKMGDANIDIQPYLEALKMGMELLRLPNGCAIKRVQPSRHNCLSDESSIVWNNGKITQDLILRLNNVECGEIEIMLEWHEGAGCRGITSSSKGGGSSST
With B2, in the assay with 6 × His-tagged FER–CD, the binding result was “binds”.

B3: GST–CAR9 (natural protein)
chain: MEDKPLGILRVHVKRGINLAIRDATTSDPYVVITLANQKLKTRVINNNCNPVWNEQLTLSIKDVNDPIRLTVFDKDRFSGDDKMGDAEIDFRPFLEAHQMELDFQKLPNGCAIKRIRPGRTNCLAEESSITWSNGKIMQEMILRLKNVECGEVELMLEWTDGPGCKGLGREGSKKTPWMPTKRLD
For the molecule B3, the binding result (in the assay with 6 × His-tagged FER–CD; in assay [1]) was “binds” throughout.

B4: GST–CAR6 (natural protein)
chain: MEKTEEEVEMKELVGLVRILVKRGIDLARRDALSSDPFVVITMGPQKLKSFTVKNNCNPEWNEELTLAIEDPNEPVKLMVYDKDTFTADDKMGDAQIDMKPFLDVHKLGLKELPHGKELKRIVPTRDNCLSEDSIIVSDNGKIVQDMILLLKNVECGKVEIQLEWLKNPGGSGL
Regarding B4, the binding result in the assay with 6 × His-tagged FER–CD is recorded as “binds”.

B5: GST–CAR9^3M (natural protein)
chain: B3 chain with T26A, S27A, Y30F
With B5, the binding result in assay [2] and in assay [3] was “binds” in each case.
